What all share (type): cell-based
Test [1] can be described thus: YFP quench plate reader assay, response to AZD-0328. The settings on record: LX293T YFP reporter cells; for percent quench of YFP fluorescence, 100 nM azd: 100 nM AZD-0328; for percent quench of YFP fluorescence, 300 nM azd: 300 nM AZD-0328; for percent quench of YFP fluorescence, 30 uM azd: 30 uM AZD-0328. The text has this: (§1) FIGS. 1A-FIG. 1G show the heat maps of the percent quench of YFP fluorescence in the mutants of the engineered chimeric receptor SEQ ID NO:33 that comprise the indicated double amino acid substitutions following stimulation by various doses of either acetylcholine or the indicated non-native ligand. Ligand doses are written across the top of each chart. Numbers in the boxes indicate the absolute amount of quench observed. Dark blue=80% maximal quench of YFP reporter. Light blue=quench of 30-80%. White=10-30%. Orange=0-10% quench. Negative values represent non-responders that have a negative quench due to a stimulation artifact. SEQ ID NO:29 is a non-responding chimera used as a negative control. Abbreviations for non-native ligand names: abt: ABT-126; ach: acetylcholine; apn: APN-1125; azd: AZD-0328; brd: TC-5619; fac: RG3487; tc6: TC-6987.
(§2) Tables 2-8 below lists percent quench of YFP fluorescence following stimulation of the indicated engineered receptor by various doses of either acetylcholine or the non-native ligand.
(§3) To screen these mutant LGICs for those having novel response profiles to ligands, an anion reporter assay was developed to assess the function of channels in a high throughput format. In this assay, cells expressing a YFP reporter whose fluorescence is quenched in the presence of anion are transfected with DNA encoding the channel of interest. Upon exposure to ligand, channels that are activated will flux anion, resulting in a dose-dependent quench of the YFP that can be detected on a plate reader.
(§4) Lenti-X 293T cells (LX293T, Clontech) were maintained in DMEM containing 10% FBS and 1% penicillin/streptomycin (Invitrogen). […] Two days before assay, cells were split at a density of 20,000 cells/well in a 96-well tissue culture plate coated with poly-d lysine (Thermo Scientific). The next day, the cells were transiently transfected with 0.1 μg of DNA per well using standard Fugene protocol (Promega). On the day of assay, cells were washed 2 times in 1× extracellular solution (1×ECS: 140 mM NaCl, 5 mM KCl, 1 mM MgCl2, 2 mM CaCl2, 10 mM HEPES, 10 mM glucose, pH 7.2, mOsms 300). After the last wash, 100 μL of 1×ECS was added to the wells and the plate was incubated at 37° C. for 30 min. While incubating the plate, the drugs were diluted to a 2× concentration in 1×ECS-NaI (same components as 1×ECS except the 140 mM NaCl was replaced by 140 mM NaI). The plates were then read on a Flexstation3 (Molecular Devices). Each well, 8 wells at a time, of the plate is read for 2 min using a Flexstation3 (Molecular Devices) as follows: 1) a baseline YFP fluorescence is read for 17 sec, 2) 100 μL of ligand is added, and 3) the changes in YFP fluorescence are then measured every 1.3 sec for the remaining time.
(§5) FIG. 1 provides heat maps of the percent quench of YFP fluorescence following stimulation by various doses of either acetylcholine or the non-native ligand as indicated in the Figure. A positive fluorescence signal, as indicated by blue shaded cells, indicate that the engineered receptor is activated by the non-native ligand at that concentration. […] Table 12 lists the EC50 values for the indicated double mutants to acetylcholine (Ach) and TC-5619 as determined from the YFP fluorescence plate reader experiment.

Test [2] in a line: YFP quench plate reader assay, response to RG3487. The conditions noted are these: LX293T YFP reporter cells; for percent quench of YFP fluorescence, 30 nM fac: 30 nM RG3487; for percent quench of YFP fluorescence, 300 nM fac: 300 nM RG3487; for percent quench of YFP fluorescence, 30 uM fac: 30 uM RG3487.
Source text: as §1, §2, §3, §4, §5

Test [3] can be described thus: YFP quench plate reader assay, response to APN-1125. The conditions noted are these: LX293T YFP reporter cells; for percent quench of YFP fluorescence, 100 nM apn: 100 nM APN-1125; for percent quench of YFP fluorescence, 1 uM apn: 1 uM APN-1125; for percent quench of YFP fluorescence, 30 uM apn: 30 uM APN-1125.
Source text: as §1, §2, §3, §4, §5

Test [4] in a line: YFP quench plate reader assay, response to acetylcholine. The settings on record: LX293T YFP reporter cells; for percent quench of YFP fluorescence, 10 uM ach: 10 uM acetylcholine; for percent quench of YFP fluorescence, 100 uM ach: 100 uM acetylcholine; for percent quench of YFP fluorescence, 1 mM ach: 1 mM acetylcholine; for percent quench of YFP fluorescence, 3 mM ach: 3 mM acetylcholine.
Source text: as §1, §2, §3, §4, §5

The nature of test [5]: YFP quench plate reader assay, response to TC-5619. The settings on record: LX293T YFP reporter cells.
Source text: as §1, §2, §3, §4, §5

Test [6] can be described thus: YFP quench plate reader assay, response to TC-6987. The conditions noted are these: LX293T YFP reporter cells; for percent quench of YFP fluorescence, 1 uM tc6: 1 uM TC-6987; for percent quench of YFP fluorescence, 10 uM tc6: 10 uM TC-6987; for percent quench of YFP fluorescence, 500 uM tc6: 500 uM TC-6987.
Source text: as §1, §2, §3, §4, §5

The nature of test [7]: YFP quench plate reader assay, response to ABT-126. The settings on record: LX293T YFP reporter cells; for percent quench of YFP fluorescence, 50 nM abt: 50 nM ABT-126; for percent quench of YFP fluorescence, 100 nM abt: 100 nM ABT-126; for percent quench of YFP fluorescence, 300 nM abt: 300 nM ABT-126; for percent quench of YFP fluorescence, 1 uM abt: 1 uM ABT-126.
Source text: as §1, §2, §3, §4, §5

B1: L131S, S172D in SEQ ID NO: 33: engineered chimeric α7-nAChR/GlyRα1 LGIC receptor: SEQ ID NO: 33 with substitutions L131S and S172D (protein)
chain: MRCSPGGVWLALAASLLHVSLQGEFQRKLYKELVKNYNPLERPVANDSQPLTVYFSLSLLQIMDVDEKNQVLTTNIWLQMSWTDHYLQWNVSEYPGVKTVRFPDGQIWKPDILLYNSADERFDATFHTNVSVNSSGHCQYLPPGIFKSSCPMDLKNFPMDVQTCKLKFGSWDYGGWSLDLQMQEADISGYIPNGEWDLVGIPGKRSERFYECCKEPYPDVTFTVTMRRRMGYYLIQMYIPSLLIVILSWISFWINMDAAPARVGLGITTVLTMTTQSSGSRASLPKVSYVKAIDIWMAVCLLFVFSALLEYAAVNFVSRQHKELLRFRRKRRHHKSPMLNLFQEDEAGEGRFNFSAYGMGPACLQAKDGISVKGANNSNTTNPPPAPSKSPEEMRKLFIQRAKKIDKISRIGFPMAFLIFNMFYWIIYKIVRREDVHNQ
modifications: synthetic sequence of chimeric LGIC
Consider B1, for which, in test [1], the “percent quench of YFP fluorescence, 100 nM azd” value is −9.32%; the “percent quench of YFP fluorescence, 300 nM azd” value was found to be 4.94%; the “percent quench of YFP fluorescence, 30 uM azd” value worked out at 60.61%. In test [2], the “percent quench of YFP fluorescence, 30 nM fac” value was −23.44%; the “percent quench of YFP fluorescence, 300 nM fac” value was found to be 2.75%; the “percent quench of YFP fluorescence, 30 uM fac” value is given as 61.44%. For the same molecule, in test [2] (10 uM RG3487), the “percent quench of YFP fluorescence, 10 uM fac” value is listed as 69.71%. Besides, in test [3], the “percent quench of YFP fluorescence, 100 nM apn” value is given as 14.26%; the “percent quench of YFP fluorescence, 1 uM apn” value worked out at 45.55%; the “percent quench of YFP fluorescence, 30 uM apn” value worked out at 64.93%. Besides, in test [4], the “percent quench of YFP fluorescence, 10 uM ach” value is −11.3%; the “percent quench of YFP fluorescence, 100 uM ach” value was −27.53%; the “percent quench of YFP fluorescence, 1 mM ach” value is 2.84%; the “percent quench of YFP fluorescence, 3 mM ach” value amounted to 14.65%. Besides, the “percent quench of YFP fluorescence, 1 nM brd” value in test [5] (1 nM TC-5619) is on record as −1.13%. In addition, the “percent quench of YFP fluorescence, 3 nM brd” value in test [5] (3 nM TC-5619) is given as −3.83%. Moreover, in test [5] (10 nM TC-5619), the “percent quench of YFP fluorescence, 10 nM brd” value is recorded as −3.78%. Further, in test [5] (100 nM TC-5619), the “percent quench of YFP fluorescence, 100 nM brd” value was −2.03%. Moreover, the “percent quench of YFP fluorescence, 1 uM brd” value in test [5] (1 uM TC-5619) came out at 1.68%. For the same molecule, in test [6], the “percent quench of YFP fluorescence, 1 uM tc6” value is reported as −20.99%; the “percent quench of YFP fluorescence, 10 uM tc6” value was −27.62%; the “percent quench of YFP fluorescence, 500 uM tc6” value is recorded as −24.22%. In addition, in test [7], the “percent quench of YFP fluorescence, 50 nM abt” value is listed as −11.96%; the “percent quench of YFP fluorescence, 100 nM abt” value is given as −10.72%; the “percent quench of YFP fluorescence, 300 nM abt” value was determined as 11.65%; the “percent quench of YFP fluorescence, 1 uM abt” value was −3.06%.

B2: L131T, S172D in SEQ ID NO: 33: engineered chimeric α7-nAChR/GlyRα1 LGIC receptor: SEQ ID NO: 33 with substitutions L131T and S172D (protein)
chain: MRCSPGGVWLALAASLLHVSLQGEFQRKLYKELVKNYNPLERPVANDSQPLTVYFSLSLLQIMDVDEKNQVLTTNIWLQMSWTDHYLQWNVSEYPGVKTVRFPDGQIWKPDILLYNSADERFDATFHTNVTVNSSGHCQYLPPGIFKSSCPMDLKNFPMDVQTCKLKFGSWDYGGWSLDLQMQEADISGYIPNGEWDLVGIPGKRSERFYECCKEPYPDVTFTVTMRRRMGYYLIQMYIPSLLIVILSWISFWINMDAAPARVGLGITTVLTMTTQSSGSRASLPKVSYVKAIDIWMAVCLLFVFSALLEYAAVNFVSRQHKELLRFRRKRRHHKSPMLNLFQEDEAGEGRFNFSAYGMGPACLQAKDGISVKGANNSNTTNPPPAPSKSPEEMRKLFIQRAKKIDKISRIGFPMAFLIFNMFYWIIYKIVRREDVHNQ
modifications: synthetic sequence of chimeric LGIC
In the case of B2, in test [1], the “percent quench of YFP fluorescence, 100 nM azd” value is listed as −7.02%; the “percent quench of YFP fluorescence, 300 nM azd” value is listed as −0.48%; the “percent quench of YFP fluorescence, 30 uM azd” value turned out to be 70.16%. Moreover, in test [2], the “percent quench of YFP fluorescence, 30 nM fac” value is given as −21.36%; the “percent quench of YFP fluorescence, 300 nM fac” value was found to be 4.17%; the “percent quench of YFP fluorescence, 30 uM fac” value is listed as 65.94%. For the same molecule, in test [3], the “percent quench of YFP fluorescence, 100 nM apn” value was 1.23%; the “percent quench of YFP fluorescence, 1 uM apn” value amounted to 35.77%; the “percent quench of YFP fluorescence, 30 uM apn” value turned out to be 68.29%. For the same molecule, in test [4], the “percent quench of YFP fluorescence, 10 uM ach” value is given as −12.24%; the “percent quench of YFP fluorescence, 100 uM ach” value was −26.23%; the “percent quench of YFP fluorescence, 1 mM ach” value was −1.16%; the “percent quench of YFP fluorescence, 3 mM ach” value is 2.97%. Further, in test [6], the “percent quench of YFP fluorescence, 1 uM tc6” value is recorded as −21.8%; the “percent quench of YFP fluorescence, 10 uM tc6” value is −27.08%; the “percent quench of YFP fluorescence, 500 uM tc6” value is given as −21.56%. Also, in test [7], the “percent quench of YFP fluorescence, 50 nM abt” value is −11.09%; the “percent quench of YFP fluorescence, 100 nM abt” value is on record as −10.37%; the “percent quench of YFP fluorescence, 300 nM abt” value is on record as −4%; the “percent quench of YFP fluorescence, 1 uM abt” value came out at 4.05%.

(Values after patent US20220348635A1, “COMPOSITIONS AND METHODS FOR NEUROLOGICAL DISEASES” (Coda Biotherapeutics, Inc., priority 2019, published 2022).)
